Laboratory results from the supplement of paper PMC10567573.

B1: PHTF1 (parent)
chain: SRHLNSQVKKTTTRWCHIVRDSDS

Variants of: B1
Assay: protein stability index of a GFP-peptide fusion (GPS, HEK-293T) (PSI 1-6); higher = more stable
Settings: c terminus: a fixed tail appended
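Further: lentivirally expressed fusions sorted by FACS into six bins by GFP to DsRed ratio, PSI derived from sequencing read proportions per bin multiplied by bin number.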

Row | Variant | protein stability index
1 | SRHLNCQVKKTTTRWCHIVRDSDS [S6C] | 1.7
2 | SRHLNDQVKKTTTRWCHIVRDSDS [S6D] | 2.88
3 | SRHLNEQVKKTTTRWCHIVRDSDS [S6E] | 2.31
4 | SRHLNFQVKKTTTRWCHIVRDSDS [S6F] | 1.45
5 | SRHLNGQVKKTTTRWCHIVRDSDS [S6G] | 1.98
6 | SRHLNHQVKKTTTRWCHIVRDSDS [S6H] | 2.29
7 | SRHLNIQVKKTTTRWCHIVRDSDS [S6I] | 2.22
8 | SRHLNKQVKKTTTRWCHIVRDSDS [S6K] | 2.38
9 | SRHLNLQVKKTTTRWCHIVRDSDS [S6L] | 1.68
10 | SRHLNMQVKKTTTRWCHIVRDSDS [S6M] | 1.93
11 | SRHLNNQVKKTTTRWCHIVRDSDS [S6N] | 2.44
12 | SRHLNPQVKKTTTRWCHIVRDSDS [S6P] | 3.03
13 | SRHLNQQVKKTTTRWCHIVRDSDS [S6Q] | 2.61
14 | SRHLNRQVKKTTTRWCHIVRDSDS [S6R] | 2.17
15 | SRHLNTQVKKTTTRWCHIVRDSDS [S6T] | 1.83
16 | SRHLNVQVKKTTTRWCHIVRDSDS [S6V] | 1.94
17 | SRHLNWQVKKTTTRWCHIVRDSDS [S6W] | 2.5
18 | SRHLNYQVKKTTTRWCHIVRDSDS [S6Y] | 2.86
19 | SRHLNSAVKKTTTRWCHIVRDSDS [Q7A] | 2.6
20 | SRHLNSCVKKTTTRWCHIVRDSDS [Q7C] | 2.08
21 | SRHLNSDVKKTTTRWCHIVRDSDS [Q7D] | 2.65
22 | SRHLNSEVKKTTTRWCHIVRDSDS [Q7E] | 2.4
23 | SRHLNSFVKKTTTRWCHIVRDSDS [Q7F] | 1.22
24 | SRHLNSGVKKTTTRWCHIVRDSDS [Q7G] | 1.89

Row | Variant | protein stability index
25 | SRHLNSHVKKTTTRWCHIVRDSDS [Q7H] | 3.08
26 | SRHLNSIVKKTTTRWCHIVRDSDS [Q7I] | 2.17
27 | SRHLNSKVKKTTTRWCHIVRDSDS [Q7K] | 2.45
28 | SRHLNSLVKKTTTRWCHIVRDSDS [Q7L] | 1.84
29 | SRHLNSMVKKTTTRWCHIVRDSDS [Q7M] | 1.73
30 | SRHLNSNVKKTTTRWCHIVRDSDS [Q7N] | 1.78
31 | SRHLNSPVKKTTTRWCHIVRDSDS [Q7P] | 2.69
32 | SRHLNSRVKKTTTRWCHIVRDSDS [Q7R] | 2
33 | SRHLNSSVKKTTTRWCHIVRDSDS [Q7S] | 2.8
34 | SRHLNSTVKKTTTRWCHIVRDSDS [Q7T] | 2.82
35 | SRHLNSVVKKTTTRWCHIVRDSDS [Q7V] | 1.4
36 | SRHLNSWVKKTTTRWCHIVRDSDS [Q7W] | 2.84
37 | SRHLNSYVKKTTTRWCHIVRDSDS [Q7Y] | 1.68
38 | SRHLNSQAKKTTTRWCHIVRDSDS [V8A] | 2.26
39 | SRHLNSQCKKTTTRWCHIVRDSDS [V8C] | 2.6
40 | SRHLNSQDKKTTTRWCHIVRDSDS [V8D] | 2.06
41 | SRHLNSQEKKTTTRWCHIVRDSDS [V8E] | 2.79
42 | SRHLNSQFKKTTTRWCHIVRDSDS [V8F] | 2.57
43 | SRHLNSQGKKTTTRWCHIVRDSDS [V8G] | 2.57
44 | SRHLNSQHKKTTTRWCHIVRDSDS [V8H] | 2.22
45 | SRHLNSQIKKTTTRWCHIVRDSDS [V8I] | 2.35
46 | SRHLNSQKKKTTTRWCHIVRDSDS [V8K] | 1.79
47 | SRHLNSQLKKTTTRWCHIVRDSDS [V8L] | 2.07
48 | SRHLNSQMKKTTTRWCHIVRDSDS [V8M] | 2.08

Row | Variant | protein stability index
49 | SRHLNSQNKKTTTRWCHIVRDSDS [V8N] | 1.78
50 | SRHLNSQPKKTTTRWCHIVRDSDS [V8P] | 2.18
51 | SRHLNSQQKKTTTRWCHIVRDSDS [V8Q] | 1.98
52 | SRHLNSQRKKTTTRWCHIVRDSDS [V8R] | 1.78
53 | SRHLNSQSKKTTTRWCHIVRDSDS [V8S] | 2.61
54 | SRHLNSQTKKTTTRWCHIVRDSDS [V8T] | 2.1
55 | SRHLNSQWKKTTTRWCHIVRDSDS [V8W] | 1.34
56 | SRHLNSQYKKTTTRWCHIVRDSDS [V8Y] | 1.57
57 | SRHLNSQVAKTTTRWCHIVRDSDS [K9A] | 2.48
58 | SRHLNSQVCKTTTRWCHIVRDSDS [K9C] | 2.13
59 | SRHLNSQVDKTTTRWCHIVRDSDS [K9D] | 2.23
60 | SRHLNSQVEKTTTRWCHIVRDSDS [K9E] | 2.33
61 | SRHLNSQVFKTTTRWCHIVRDSDS [K9F] | 1.83
62 | SRHLNSQVGKTTTRWCHIVRDSDS [K9G] | 2.55
63 | SRHLNSQVHKTTTRWCHIVRDSDS [K9H] | 1.81
64 | SRHLNSQVIKTTTRWCHIVRDSDS [K9I] | 1.97
65 | SRHLNSQVLKTTTRWCHIVRDSDS [K9L] | 2.21
66 | SRHLNSQVMKTTTRWCHIVRDSDS [K9M] | 2.37
67 | SRHLNSQVNKTTTRWCHIVRDSDS [K9N] | 2.35
68 | SRHLNSQVPKTTTRWCHIVRDSDS [K9P] | 2.71
69 | SRHLNSQVQKTTTRWCHIVRDSDS [K9Q] | 2.02
70 | SRHLNSQVRKTTTRWCHIVRDSDS [K9R] | 2.16
71 | SRHLNSQVSKTTTRWCHIVRDSDS [K9S] | 2.26
72 | SRHLNSQVTKTTTRWCHIVRDSDS [K9T] | 1.83

Row | Variant | protein stability index
73 | SRHLNSQVVKTTTRWCHIVRDSDS [K9V] | 3.18
74 | SRHLNSQVWKTTTRWCHIVRDSDS [K9W] | 1.85
75 | SRHLNSQVYKTTTRWCHIVRDSDS [K9Y] | 1.68
76 | SRHLNSQVKATTTRWCHIVRDSDS [K10A] | 2.76
77 | SRHLNSQVKCTTTRWCHIVRDSDS [K10C] | 2.11
78 | SRHLNSQVKDTTTRWCHIVRDSDS [K10D] | 2.56
79 | SRHLNSQVKETTTRWCHIVRDSDS [K10E] | 2.63
80 | SRHLNSQVKFTTTRWCHIVRDSDS [K10F] | 1.78
81 | SRHLNSQVKGTTTRWCHIVRDSDS [K10G] | 2.55
82 | SRHLNSQVKHTTTRWCHIVRDSDS [K10H] | 2.29
83 | SRHLNSQVKITTTRWCHIVRDSDS [K10I] | 1.61
84 | SRHLNSQVKLTTTRWCHIVRDSDS [K10L] | 1.8
85 | SRHLNSQVKMTTTRWCHIVRDSDS [K10M] | 2.37
86 | SRHLNSQVKNTTTRWCHIVRDSDS [K10N] | 2.72
87 | SRHLNSQVKPTTTRWCHIVRDSDS [K10P] | 2.28
88 | SRHLNSQVKQTTTRWCHIVRDSDS [K10Q] | 2.19
89 | SRHLNSQVKRTTTRWCHIVRDSDS [K10R] | 1.8
90 | SRHLNSQVKSTTTRWCHIVRDSDS [K10S] | 2.87
91 | SRHLNSQVKTTTTRWCHIVRDSDS [K10T] | 1.98
92 | SRHLNSQVKVTTTRWCHIVRDSDS [K10V] | 2.71
93 | SRHLNSQVKWTTTRWCHIVRDSDS [K10W] | 1.97
94 | SRHLNSQVKYTTTRWCHIVRDSDS [K10Y] | 1.69
